According to patent US20240116985A1, “STAPLED PEPTIDES AND METHODS THEREOF” (priority 2020, published 2024):
Starred links: 1 amine or outer side, 2 acyl side, 3 side chain; linkers in the order of their positions; H or OH if unused. Positions of bridges follow the written chain, without caps; N, C: chain ends. Non-standard residues stand in square brackets, D forms with d. Primed or numbered codes have the meaning given here. *: point of attachment. PyrS2″ = (S)-3-amino-1-((pent-4-en-1-yloxy)carbonyl)pyrrolidine-3-carboxylic acid (stapling residue), C=CCCCOC(=O)N1CC[C@@](N[*:1])(C(=O)[*:2])C1; Tf = trifluoromethylsulfonyl on Dap side-chain N ([Tf]Dap = (S)-2-amino-3-((trifluoromethyl)sulfonamido)propanoic acid), O=S(=O)(C(F)(F)F)*; B5(16) = 2-amino-2-(pent-4-en-1-yl)hept-6-enoic acid = 2,2-bis(4-pentenyl)glycine (stitching residue), C=CCCCC(CCCC=C)(N[*:1])C(=O)[*:2]; B5(4) = 2,2-bis(4-pentenyl)glycine = 2-amino-2-(pent-4-en-1-yl)hept-6-enoic acid (stitching residue), C=CCCCC(CCCC=C)(N[*:1])C(=O)[*:2]; B5(5) = 2,2-bis(4-pentenyl)glycine, 2-amino-2-(pent-4-en-1-yl)hept-6-enoic acid (stitching residue), C=CCCCC(CCCC=C)(N[*:1])C(=O)[*:2]; TfeGA = (S)-2-amino-3-((carboxymethyl)(2,2,2-trifluoroethyl)amino)propanoic acid, O=C([C@H](CN(CC(=O)[*:3])CC(F)(F)F)N[*:1])[*:2]; PyrS2 = (S)-3-amino-1-((pent-4-en-1-yloxy)carbonyl)pyrrolidine-3-carboxylic acid, C=CCCCOC(=O)N1CC[C@@](N[*:1])(C(=O)[*:2])C1; B5(12) = 2-amino-2-(pent-4-en-1-yl)hept-6-enoic acid (two olefin side chains), C=CCCCC(CCCC=C)(N[*:1])C(=O)[*:2]; B5(3) = 2,2-bis(4-pentenyl)glycine (stitching residue), C=CCCCC(CCCC=C)(N[*:1])C(=O)[*:2]; B5 = 2-amino-2-(pent-4-en-1-yl)hept-6-enoic acid, C=CCCCC(CCCC=C)(N[*:1])C(=O)[*:2]; Trp(6-Cl) = N[C@@H](Cc1c[nH]c2cc(Cl)ccc12)C(=O)O; Phe(3-COOH) = N[C@@H](Cc1cccc(C(=O)O)c1)C(=O)O; Phe(2-Cl) = N[C@@H](Cc1ccccc1Cl)C(=O)O; 1Nal = N[C@@H](Cc1cccc2ccccc12)C(=O)O; 2Nal = N[C@@H](Cc1ccc2ccccc2c1)C(=O)O; Bta = N[C@@H](Cc1csc2ccccc12)C(=O)O; αAllylPro = C=CC[C@@]1(C(=O)O)CCCN1; tBuAla = CC(C)(C)C[C@H](N)C(=O)O; 3Thi = N[C@@H](Cc1ccsc1)C(=O)O; Cha = N[C@@H](CC1CCCCC1)C(=O)O; Cit = NC(=O)NCCC[C@H](N)C(=O)O; S8 = C=CCCCCCC[C@](C)(N)C(=O)O; hSer = N[C@@H](CCO)C(=O)O; Dap = NC[C@H](N)C(=O)O

B1: I-627 (peptide)
peptide: Ac-[αAllylPro]D[Cha][B5(4)]DEAAFN[S8]F[Bta]-NH2
modifications: staple 1-4, 4-11
B2: I-632 (peptide)
peptide: Ac-[αAllylPro][Dap](Tf)I[B5(4)]DEAAFQ[S8]F[Bta]Q-NH2
modifications: staple 1-4, 4-11
B3: I-631 (peptide)
peptide: Ac-[αAllylPro]DI[B5(4)][Dap](Tf)EAAFQ[S8]F[Bta]Q-NH2
modifications: staple 1-4, 4-11
B4: I-629 (peptide)
peptide: Ac-[αAllylPro]DL[B5(16)]DEAAF[Cit][S8]F[Bta]-NH2
modifications: staple 1-4, 4-11; not fully specified; printed as Ac-PL3-Asp-Leu-B5-Asp-Glu-Ala-Ala-Phe-Cit-S8-Phe-BztA-NH2
B5: I-628 (peptide)
peptide: Ac-[αAllylPro]DL[B5(4)]DEAAF[Cit][S8]F[Bta]-NH2
modifications: staple 1-4, 4-11
B6: I-630 (peptide)
peptide: Ac-[αAllylPro]DI[B5(4)][Dap](Tf)EAAFQ[S8]F[Bta]Q-NH2
modifications: staple 1-4, 4-11
B7: I-1020 (peptide)
peptide: Ac-[αAllylPro]D[tBuAla][B5(5)]DNAAFS[PyrS2″][Phe(2-Cl)][Bta]S-NH2
modifications: staple 1-4, 4-11
B8: I-626 (peptide)
peptide: Ac-[αAllylPro]D[Cha][B5(4)]DEAAFN[S8]F[Bta]-NH2
modifications: staple 1-4, 4-11
B9: I-983 (peptide)
peptide: Ac-[αAllylPro]D[tBuAla][B5(3)]D[Phe(3-COOH)]AAFF[PyrS2″][3Thi][Bta]S-NH2
modifications: staple 1-4, 4-11; also: later eluting HPLC isomer
B10: I-979 (peptide)
peptide: Ac-[αAllylPro]D[tBuAla][B5(4)]D[Phe(3-COOH)]AAFS[PyrS2″][3Thi][Bta]Q-NH2
modifications: staple 1-4, 4-11; also: later eluting HPLC staple isomer
B11: I-985 (peptide)
peptide: Ac-[αAllylPro]D[tBuAla][B5(3)]D[Phe(3-COOH)]AAFS[PyrS2″][3Thi][Bta]S-NH2
modifications: staple 1-4, 4-11; also: later eluting HPLC isomer
B12: I-978 (peptide)
peptide: Ac-[αAllylPro]D[tBuAla][B5(4)]D[Phe(3-COOH)]AAFS[PyrS2″][3Thi][Bta]Q-NH2
modifications: staple 1-4, 4-11; also: earlier eluting HPLC staple isomer
B13: I-991 (peptide)
peptide: Ac-[αAllylPro]D[tBuAla][B5(3)]D[TfeGA]AAFF[PyrS2″][Phe(2-Cl)][Bta]T-NH2
modifications: staple 1-4, 4-11
B14: I-981 (peptide)
peptide: Ac-[αAllylPro]D[tBuAla][B5(4)]D[Phe(3-COOH)]AAFT[PyrS2″][3Thi][Bta]Q-NH2
modifications: staple 1-4, 4-11; also: later eluting HPLC staple isomer
B15: I-992 (peptide)
peptide: Ac-[αAllylPro]D[tBuAla][B5(3)]D[TfeGA]AAFF[PyrS2″][Phe(2-Cl)][Bta][hSer]-NH2
modifications: staple 1-4, 4-11
B16: I-995 (peptide)
peptide: Ac-[αAllylPro]D[tBuAla][B5(3)]D[TfeGA]AAFS[S8][Phe(2-Cl)][Bta]Q-NH2
modifications: staple 1-4, 4-11
B17: I-982 (peptide)
peptide: Ac-[αAllylPro]D[tBuAla][B5(3)]D[Phe(3-COOH)]AAFF[PyrS2″][3Thi][Bta]S-NH2
modifications: staple 1-4, 4-11; also: earlier eluting HPLC isomer
B18: I-984 (peptide)
peptide: Ac-[αAllylPro]D[tBuAla][B5(3)]D[Phe(3-COOH)]AAFS[PyrS2″][3Thi][Bta]S-NH2
modifications: staple 1-4, 4-11; also: earlier eluting HPLC isomer
B19: I-980 (peptide)
peptide: Ac-[αAllylPro]D[tBuAla][B5(4)]D[Phe(3-COOH)]AAFT[PyrS2″][3Thi][Bta]Q-NH2
modifications: staple 1-4, 4-11; also: earlier eluting HPLC staple isomer
B20: I-989 (peptide)
peptide: Ac-[αAllylPro]D[tBuAla][B5(3)]D[TfeGA]AAFF[PyrS2″]Y[Bta]Q-NH2
modifications: staple 1-4, 4-11
B21: I-845 (peptide)
peptide: Ac-[αAllylPro]D[tBuAla][B5(4)]DTAAFN[PyrS2][3Thi][Bta]H-NH2
modifications: staple 1-4, 4-11
B22: I-843 (peptide)
peptide: Ac-[αAllylPro]D[tBuAla][B5(4)]DYAAFN[PyrS2][3Thi][Bta]H-NH2
modifications: staple 1-4, 4-11
B23: I-855 (peptide)
peptide: Ac-[αAllylPro]D[tBuAla][B5(12)]DNAAFF[PyrS2][3Thi][Bta]Q-NH2
modifications: staple 1-4, 4-11
B24: I-856 (peptide)
peptide: Ac-[αAllylPro]D[tBuAla][B5(12)]DNAAFL[PyrS2][3Thi][Bta]Q-NH2
modifications: staple 1-4, 4-11
B25: I-794 (peptide)
peptide: Ac-[αAllylPro]D[tBuAla][B5]DDAAFN[PyrS2][1Nal][Bta]H-NH2
modifications: staple 1-4, 4-11
B26: I-798 (peptide)
peptide: Ac-[αAllylPro]D[tBuAla][B5]DDAAFN[PyrS2][3Thi][Trp(6-Cl)]H-NH2
modifications: staple 1-4, 4-11
B27: I-795 (peptide)
peptide: Ac-[αAllylPro]D[tBuAla][B5]DDAAFN[PyrS2][2Nal][Bta]H-NH2
modifications: staple 1-4, 4-11
B28: I-802 (peptide)
peptide: Ac-[αAllylPro]D[tBuAla][B5]DDAAFL[PyrS2][3Thi][Bta]H-NH2
modifications: staple 1-4, 4-11
B29: I-1019: Ac-PL3-Asp-Npg-B5-Asp-Asp-Ala-Ala-Phe-Ser-PyrS2-2C1F-BztA-Ser-NH2 (peptide)
peptide: Ac-[αAllylPro]D[tBuAla][B5(16)]DDAAFS[PyrS2″][Phe(2-Cl)][Bta]S-NH2
modifications: staple 1-4, 4-11; not fully specified; printed as Ac-PL3-Asp-Npg-B5-Asp-Asp-Ala-Ala-Phe-Ser-PyrS2-2C1F-BztA-Ser-NH2

The binders below were run against full-length beta-Catenin (Uniprot ID P35222) (Homo sapiens (Human)) (UniProt P35222) (assay: fluorescence polarization competition; full-length beta-catenin, competitor 5FAM-TCF4 10-53).

Row | Binder | IC50 [nM]
1 | B1 | 338
2 | B2 | 5000
3 | B3 | 5000
4 | B4 | 36
5 | B5 | 60
6 | B6 | 5000
7 | B7 | 52
8 | B8 | 5000

These binders were tested against full-length beta-Catenin (Uniprot ID P35222) (Homo sapiens (Human)) (UniProt P35222) (assay: fluorescence polarization competition; displaces 5FAM-TCF4(10-53) from full-length beta-catenin).
Target sequence in this assay (P35222 2-781 limits assumed): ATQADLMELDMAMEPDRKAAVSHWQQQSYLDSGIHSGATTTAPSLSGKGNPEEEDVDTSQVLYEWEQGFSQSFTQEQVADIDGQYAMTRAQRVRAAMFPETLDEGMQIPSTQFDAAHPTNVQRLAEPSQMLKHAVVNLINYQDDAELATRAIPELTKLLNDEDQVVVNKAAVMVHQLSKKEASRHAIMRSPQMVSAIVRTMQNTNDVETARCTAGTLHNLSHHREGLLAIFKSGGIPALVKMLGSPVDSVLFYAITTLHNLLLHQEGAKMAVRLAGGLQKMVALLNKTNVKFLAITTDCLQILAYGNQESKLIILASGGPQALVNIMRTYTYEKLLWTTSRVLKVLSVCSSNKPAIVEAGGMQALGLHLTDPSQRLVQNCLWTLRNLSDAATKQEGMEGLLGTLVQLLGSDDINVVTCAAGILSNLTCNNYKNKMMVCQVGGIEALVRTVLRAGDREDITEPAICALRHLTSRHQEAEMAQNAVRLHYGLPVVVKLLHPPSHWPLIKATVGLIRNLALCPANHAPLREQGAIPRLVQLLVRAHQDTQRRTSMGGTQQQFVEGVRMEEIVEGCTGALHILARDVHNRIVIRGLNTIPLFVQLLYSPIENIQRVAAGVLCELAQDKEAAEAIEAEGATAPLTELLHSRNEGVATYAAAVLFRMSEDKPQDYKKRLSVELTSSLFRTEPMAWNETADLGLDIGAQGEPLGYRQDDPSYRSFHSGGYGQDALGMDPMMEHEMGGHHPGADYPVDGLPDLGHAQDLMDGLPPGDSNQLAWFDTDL

Row | Binder | EC50 [nM]
9 | B7 | 52

Each binder was assayed against full-length beta-Catenin (Uniprot ID P35222) (Homo sapiens (Human)) (UniProt P35222) (assay: fluorescence polarization competition; full-length beta-catenin, competitor probe 5FAM-TCF4(10-53)).
Target sequence in this assay (P35222 2-781 limits assumed): as above

Row | Binder | IC50 [nM]
10 | B9 | 118
11 | B10 | 240
12 | B11 | 430
13 | B12 | 112
14 | B13 | 51
15 | B14 | 374
16 | B15 | 59
17 | B16 | 55
18 | B17 | 190
19 | B18 | 179
20 | B19 | 221
21 | B20 | 87

What follows are binders tested against full-length beta-Catenin (Uniprot ID P35222) (Homo sapiens (Human)) (UniProt P35222) (assay: fluorescence polarization competition; displacement of 5FAM-TCF4(10-53) from full-length beta-catenin).
Target sequence in this assay (P35222 whole entry): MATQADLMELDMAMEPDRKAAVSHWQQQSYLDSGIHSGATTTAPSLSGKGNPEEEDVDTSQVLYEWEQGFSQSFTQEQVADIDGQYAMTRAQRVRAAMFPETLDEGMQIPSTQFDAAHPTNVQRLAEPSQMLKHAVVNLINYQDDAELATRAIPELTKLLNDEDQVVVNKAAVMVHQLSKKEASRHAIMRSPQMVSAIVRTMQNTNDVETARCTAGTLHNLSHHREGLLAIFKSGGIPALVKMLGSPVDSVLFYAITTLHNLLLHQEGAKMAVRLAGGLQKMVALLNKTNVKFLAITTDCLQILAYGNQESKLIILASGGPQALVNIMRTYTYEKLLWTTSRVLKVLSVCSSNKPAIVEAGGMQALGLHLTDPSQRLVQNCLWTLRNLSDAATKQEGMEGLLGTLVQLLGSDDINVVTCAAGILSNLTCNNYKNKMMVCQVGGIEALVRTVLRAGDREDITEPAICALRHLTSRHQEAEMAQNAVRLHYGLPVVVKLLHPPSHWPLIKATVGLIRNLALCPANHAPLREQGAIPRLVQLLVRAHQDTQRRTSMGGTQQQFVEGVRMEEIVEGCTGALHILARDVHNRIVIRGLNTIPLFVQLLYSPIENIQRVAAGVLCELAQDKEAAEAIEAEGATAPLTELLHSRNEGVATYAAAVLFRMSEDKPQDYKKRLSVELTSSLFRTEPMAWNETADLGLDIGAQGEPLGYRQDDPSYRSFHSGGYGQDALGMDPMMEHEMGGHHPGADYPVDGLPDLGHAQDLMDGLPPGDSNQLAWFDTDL

Row | Binder | IC50 [nM]
22 | B21 | 7
23 | B22 | 154
24 | B23 | 22
25 | B24 | 17

These binders were tested against full-length beta-Catenin (Uniprot ID P35222) (Homo sapiens (Human)) (UniProt P35222) (assay: fluorescence polarization competition; full-length beta-catenin with 5FAM-labeled TCF4 (10-53) probe as competitor).
Target sequence in this assay (P35222 whole entry): as above

Row | Binder | EC50 [nM]
26 | B9 | 118
27 | B10 | 240
28 | B11 | 301
29 | B12 | 112
30 | B13 | 51
31 | B14 | 199
32 | B15 | 59
33 | B16 | 55
34 | B17 | 190
35 | B18 | 179
36 | B19 | 221
37 | B20 | 87

These binders were tested against full-length beta-Catenin (Uniprot ID P35222) (Homo sapiens (Human)) (UniProt P35222) (assay: fluorescence polarization competition; 10 nM full-length beta-catenin with 10 nM 5FAM-TCF4(10-53) probe as competitor).
Target sequence in this assay (P35222 2-781 limits assumed): as the sequence (P35222 2-781 limits assumed) above

Row | Binder | IC50 [nM]
38 | B25 | 19
39 | B26 | 106
40 | B27 | 176
41 | B28 | 6
42 | B29 | 5

What follows are binders tested against full-length beta-Catenin (Uniprot ID P35222) (Homo sapiens (Human)) (UniProt P35222) (assay: fluorescence polarization competition: peptide titrated against 10 nM full-length beta-catenin + 10 nM 5FAM-TCF4(10-53) probe).
Target sequence in this assay (P35222 2-781 limits assumed): as above

Row | Binder | EC50 [nM]
43 | B25 | 19
44 | B26 | 106
45 | B27 | 176
46 | B28 | 6

What follows are binders tested against full-length beta-Catenin (Uniprot ID P35222) (Homo sapiens (Human)) (UniProt P35222) (assay: fluorescence polarization competition; peptide titrated against 10 nM full-length beta-catenin + 10 nM 5FAM-TCF4(10-53) probe).
Target sequence in this assay (P35222 whole entry): as the sequence (P35222 whole entry) above

Row | Binder | EC50 [nM]
47 | B1 | 338
48 | B2 | 5000
49 | B3 | 5000
50 | B4 | 685
51 | B5 | 713
52 | B6 | 5000
53 | B8 | 5000

Each binder was assayed against full-length beta-Catenin (Uniprot ID P35222) (Homo sapiens (Human)) (UniProt P35222) (assay: fluorescence polarization competition; 10 nM full-length beta-catenin with 10 nM 5FAM-TCF4 (residues 10-53) probe as competitor).
Target sequence in this assay (P35222 2-781 limits assumed): as the sequence (P35222 2-781 limits assumed) above

Row | Binder | EC50 [nM]
54 | B21 | 7
55 | B22 | 154
56 | B23 | 22
57 | B24 | 17
